Experimental findings from patent US20230250154A1 (CYTONICS, published 2023) are described below.

Among the targets are MMP13 (human, UniProt P45452 104-471, limits assumed); MMP9 (human, UniProt P14780 107-707, limits assumed); Elastase; MMP8 (human, UniProt P22894 101-467, limits assumed); MMP3 (human, UniProt P08254 100-477, limits assumed).
Common to all, as to test: cell-based or functional assay
For a further assay, the target named is T1, MMP7 (UniProt P09237 95-267, limits assumed).
T1 sequence (looked up): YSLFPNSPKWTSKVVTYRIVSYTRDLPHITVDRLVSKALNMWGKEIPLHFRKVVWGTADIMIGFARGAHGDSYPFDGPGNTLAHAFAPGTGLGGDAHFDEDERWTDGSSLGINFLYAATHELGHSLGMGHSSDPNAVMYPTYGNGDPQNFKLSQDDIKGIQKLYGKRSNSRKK

A further assay addresses T2, ADAMTS4 (human, UniProt O75173 213-685, limits assumed).
T2 sequence (looked up): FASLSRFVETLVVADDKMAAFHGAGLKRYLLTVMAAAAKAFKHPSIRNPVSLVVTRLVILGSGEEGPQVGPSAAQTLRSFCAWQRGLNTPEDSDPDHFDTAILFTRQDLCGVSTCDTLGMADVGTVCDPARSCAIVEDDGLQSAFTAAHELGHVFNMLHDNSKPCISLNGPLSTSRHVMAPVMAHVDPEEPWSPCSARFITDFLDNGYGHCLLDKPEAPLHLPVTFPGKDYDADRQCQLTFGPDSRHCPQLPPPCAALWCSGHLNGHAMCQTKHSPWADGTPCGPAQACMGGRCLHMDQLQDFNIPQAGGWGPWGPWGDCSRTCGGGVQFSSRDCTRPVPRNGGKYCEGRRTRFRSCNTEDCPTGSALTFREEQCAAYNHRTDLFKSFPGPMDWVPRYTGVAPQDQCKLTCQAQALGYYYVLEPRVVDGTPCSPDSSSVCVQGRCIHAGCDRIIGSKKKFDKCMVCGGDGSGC

A further assay has as its target T3, MMP2 (human, UniProt P08253 110-660, limits assumed).
T3 sequence (looked up): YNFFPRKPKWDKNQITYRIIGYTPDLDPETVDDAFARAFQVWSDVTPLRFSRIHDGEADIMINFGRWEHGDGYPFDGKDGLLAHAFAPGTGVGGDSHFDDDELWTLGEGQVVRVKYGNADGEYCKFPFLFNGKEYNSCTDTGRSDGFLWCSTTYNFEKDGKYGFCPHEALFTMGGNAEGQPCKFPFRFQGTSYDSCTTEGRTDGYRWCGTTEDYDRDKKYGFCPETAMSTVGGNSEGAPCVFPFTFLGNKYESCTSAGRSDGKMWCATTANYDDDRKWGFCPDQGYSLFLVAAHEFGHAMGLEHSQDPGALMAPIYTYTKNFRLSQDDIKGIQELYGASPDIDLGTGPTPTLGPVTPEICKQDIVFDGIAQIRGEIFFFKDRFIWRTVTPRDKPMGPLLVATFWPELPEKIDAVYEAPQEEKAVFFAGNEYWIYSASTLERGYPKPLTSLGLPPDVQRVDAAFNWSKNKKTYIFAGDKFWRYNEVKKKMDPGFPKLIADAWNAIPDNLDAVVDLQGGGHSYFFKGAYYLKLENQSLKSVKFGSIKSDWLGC

The next assay addresses T4, ADAMTS5 (human, UniProt Q9UNA0 262-622, limits assumed).
T4 sequence (looked up): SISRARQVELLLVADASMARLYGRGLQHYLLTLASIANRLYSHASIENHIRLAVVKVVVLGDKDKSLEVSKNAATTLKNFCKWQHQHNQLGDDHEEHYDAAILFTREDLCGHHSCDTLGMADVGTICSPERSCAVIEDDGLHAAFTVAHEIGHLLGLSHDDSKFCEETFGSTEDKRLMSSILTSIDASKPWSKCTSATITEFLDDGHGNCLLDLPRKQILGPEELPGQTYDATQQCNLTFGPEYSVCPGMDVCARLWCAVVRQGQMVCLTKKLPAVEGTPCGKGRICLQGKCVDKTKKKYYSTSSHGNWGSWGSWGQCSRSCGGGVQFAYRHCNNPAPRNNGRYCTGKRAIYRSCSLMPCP

The next assay concerns the target T5, Cathepsin G (UniProt P08311 21-244).
T5 sequence (looked up): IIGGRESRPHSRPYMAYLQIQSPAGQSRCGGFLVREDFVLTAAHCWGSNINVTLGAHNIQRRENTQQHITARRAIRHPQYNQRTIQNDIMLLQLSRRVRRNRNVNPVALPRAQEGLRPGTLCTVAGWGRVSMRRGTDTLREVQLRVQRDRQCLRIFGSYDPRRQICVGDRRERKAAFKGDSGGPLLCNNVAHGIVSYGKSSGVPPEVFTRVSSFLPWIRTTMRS

For the next assay, the target named is T6, MMP1 (human, UniProt P03956 100-469, limits assumed).
T6 sequence (looked up): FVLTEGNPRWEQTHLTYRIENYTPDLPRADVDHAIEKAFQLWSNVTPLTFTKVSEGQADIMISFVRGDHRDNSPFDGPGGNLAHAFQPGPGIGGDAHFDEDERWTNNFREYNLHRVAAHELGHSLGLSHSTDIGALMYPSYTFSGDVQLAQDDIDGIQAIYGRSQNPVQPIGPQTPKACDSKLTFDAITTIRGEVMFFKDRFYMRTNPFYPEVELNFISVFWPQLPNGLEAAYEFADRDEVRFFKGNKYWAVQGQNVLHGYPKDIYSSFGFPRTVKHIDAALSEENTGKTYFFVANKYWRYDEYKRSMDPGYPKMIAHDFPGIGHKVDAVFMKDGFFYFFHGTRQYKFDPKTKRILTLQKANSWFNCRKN

Sequence of MMP3 (P08254 100-477 limits assumed): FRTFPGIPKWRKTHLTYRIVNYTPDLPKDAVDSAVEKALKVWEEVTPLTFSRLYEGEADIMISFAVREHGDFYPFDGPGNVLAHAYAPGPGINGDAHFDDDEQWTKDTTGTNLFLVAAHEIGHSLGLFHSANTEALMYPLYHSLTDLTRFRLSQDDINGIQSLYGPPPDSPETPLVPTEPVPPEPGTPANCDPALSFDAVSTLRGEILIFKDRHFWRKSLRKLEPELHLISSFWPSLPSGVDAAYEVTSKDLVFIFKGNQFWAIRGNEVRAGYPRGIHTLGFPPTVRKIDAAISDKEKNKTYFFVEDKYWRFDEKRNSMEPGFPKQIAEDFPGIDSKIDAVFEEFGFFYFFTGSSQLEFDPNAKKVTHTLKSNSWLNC
Sequence of MMP8 (P22894 101-467 limits assumed): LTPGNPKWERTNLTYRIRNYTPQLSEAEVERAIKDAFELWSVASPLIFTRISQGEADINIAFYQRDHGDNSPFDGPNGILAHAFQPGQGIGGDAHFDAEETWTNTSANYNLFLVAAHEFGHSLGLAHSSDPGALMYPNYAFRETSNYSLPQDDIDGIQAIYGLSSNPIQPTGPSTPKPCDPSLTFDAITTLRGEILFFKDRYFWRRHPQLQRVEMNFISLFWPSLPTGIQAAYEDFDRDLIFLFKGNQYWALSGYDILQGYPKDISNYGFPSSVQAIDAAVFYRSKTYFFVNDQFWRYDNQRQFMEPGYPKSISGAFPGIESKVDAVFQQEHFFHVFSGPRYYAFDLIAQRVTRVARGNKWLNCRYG
Sequence of MMP9 (P14780 107-707 limits assumed): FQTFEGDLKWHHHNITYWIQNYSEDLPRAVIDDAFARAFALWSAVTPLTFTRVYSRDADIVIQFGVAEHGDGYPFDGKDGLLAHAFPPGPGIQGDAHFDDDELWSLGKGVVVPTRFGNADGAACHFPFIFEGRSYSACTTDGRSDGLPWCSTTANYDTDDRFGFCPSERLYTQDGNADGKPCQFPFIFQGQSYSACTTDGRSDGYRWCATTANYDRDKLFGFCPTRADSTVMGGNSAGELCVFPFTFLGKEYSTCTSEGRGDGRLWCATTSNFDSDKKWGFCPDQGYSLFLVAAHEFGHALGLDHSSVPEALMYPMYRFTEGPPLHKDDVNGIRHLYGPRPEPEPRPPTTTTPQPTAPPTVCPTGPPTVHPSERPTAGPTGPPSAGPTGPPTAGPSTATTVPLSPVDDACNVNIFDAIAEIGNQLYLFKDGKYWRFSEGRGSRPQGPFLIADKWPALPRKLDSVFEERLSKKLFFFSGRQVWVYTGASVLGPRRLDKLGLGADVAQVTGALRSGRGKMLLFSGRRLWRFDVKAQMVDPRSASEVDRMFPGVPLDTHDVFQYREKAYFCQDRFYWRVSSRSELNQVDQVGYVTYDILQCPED

B1: Variant A2M, bait region SEQ ID NO 10 (other)
chain: SVSGKPQYMVLVPSLLHTETTEKGCVLLSYLNETVTVSASLESVRGNRSLFTDLEAENDVLHCVAFAVPKSSSNEEVMFLTVQVKGPTQEFKKRTTVMVKNEDSLVFVQTDKSIYKPGQTVKFRVVSMDENFHPLNELIPLVYIQDPKGNRIAQWQSFQLEGGLKQFSFPLSSEPFQGSYKVVVQKKSGGRTEHPFTVEEFVLPKFEVQVTVPKIITILEEEMNVSVCGLYTYGKPVPGHVTVSICRKYSDASDCHGEDSQAFCEKFSGQLNSHGCFYQQVKTKVFQLKRKEYEMKLHTEAQIQEEGTVVELTGRQSSEITRTITKLSFVKVDSHFRQGIPFFGQVRLVDGKGVPIPNKVIFIRGNEANYYSNATTDEHGLVQFSINTTNVMGTSLTVRVNYKDRSPCYGYQWVSEEHEEAHHTAYLVFSPSKSFVHLEPMSHELPCGHTQTVQAHYILNGGTLLGLKKLSFYYLIMAKGGIVRTGTHGLLVKQEDMKGHFSISIPVKSDIAPVARLLIYAVLPTGDVIGDSAKYDVENCLANKVDLSFSPSQSLPASHAHLRVTAAPQSVCALRAVDQSVLLMKPDAELSASSVYNLLPEKDLTGFPGPLNDQDDEDCINRHNVYINGITYTPVSSTNEKDMYSFLEDMGLKAFTNSKIRKPKMCPQLEHGPEGEGLGEGIPENFYGVSEDLVVQISELEGRGSVEEPHTKLRKYFPETWIWDLVVVNSAGVAEVGVTVPDTITEWKAGAFCLSEDAGLGISSTASLRAFQPFFVELTMPYSVIRGEAFTLKATVLNYLPKCIRVSVQLEASPAFLAVPVEKEQAPHCICANGRQTVSWAVTPKSLGNVNFTVSAEALESQELCGTEVPSVPEHGRKDTVIKPLLVEPEGLEKETTFNSLLCPSGGEVSEELSLKLPPNVVEESARASVSVLGDILGSAMQNTQNLLQMPYGCGEQNMVLFAPNIYVLDYLNETQQLTPEIKSKAIGYLNTGYQRQLNYKHYDGSYSTFGERYGRNQGNTWLTAFVLKTFAQARAYIFIDEAHITQALIWLSQRQKDNGCFRSSGSLLNNAIKGGVEDEVTLSAYITIALLEIPLTVTHPVVRNALFCLESAWKTAQEGDHGSHVYTKALLAYAFALAGNQDKRKEVLKSLNEEAVKKDNSVHWERPQKPKAPVGHFYEPQAPSAEVEMTSYVLLAYLTAQPAPTSEDLTSATNIVKWITKQQNAQGGFSSTQDTVVALHALSKYGAATFTRTGKAAQVTIQSSGTFSSKFQVDNNNRLLLQQVSLPELPGEYSMKVTGEGCVYLQTSLKYNILPEKEEFPFALGVQTLPQTCDEPKAHTSFQISLSVSYTGSRSASNMAIVDVKMVSGFIPLKPTVKMLERSNHVSRTEVSSNHVLIYLDKVSNQTLSLFFTVLQDVPVRDLKPAIVKVYDYYETDEFAIAEYNAPCSKDLGNADYKDDDDKGASHHHHHH
As for B1, the “Protease Inhibition (% of WT)” value was 128 % of WT with MMP13; 191 % of WT with MMP7; 16 % of WT with MMP9; 106 % of WT with Elastase; 159 % of WT with ADAMTS4; 25 % of WT with MMP2. Further, the “Protease Inhibition (% of WT)” value was 38 % of WT with MMP8; 412 % of WT with ADAMTS5; 27 % of WT in the assay with MMP3; 134 % of WT with Cathepsin G; 111 % of WT in the assay with MMP1.

B2: Variant A2M, bait region SEQ ID NO 12 (other)
chain: SVSGKPQYMVLVPSLLHTETTEKGCVLLSYLNETVTVSASLESVRGNRSLFTDLEAENDVLHCVAFAVPKSSSNEEVMFLTVQVKGPTQEFKKRTTVMVKNEDSLVFVQTDKSIYKPGQTVKFRVVSMDENFHPLNELIPLVYIQDPKGNRIAQWQSFQLEGGLKQFSFPLSSEPFQGSYKVVVQKKSGGRTEHPFTVEEFVLPKFEVQVTVPKIITILEEEMNVSVCGLYTYGKPVPGHVTVSICRKYSDASDCHGEDSQAFCEKFSGQLNSHGCFYQQVKTKVFQLKRKEYEMKLHTEAQIQEEGTVVELTGRQSSEITRTITKLSFVKVDSHFRQGIPFFGQVRLVDGKGVPIPNKVIFIRGNEANYYSNATTDEHGLVQFSINTTNVMGTSLTVRVNYKDRSPCYGYQWVSEEHEEAHHTAYLVFSPSKSFVHLEPMSHELPCGHTQTVQAHYILNGGTLLGLKKLSFYYLIMAKGGIVRTGTHGLLVKQEDMKGHFSISIPVKSDIAPVARLLIYAVLPTGDVIGDSAKYDVENCLANKVDLSFSPSQSLPASHAHLRVTAAPQSVCALRAVDQSVLLMKPDAELSASSVYNLLPEKDLTGFPGPLNDQDDEDCINRHNVYINGITYTPVSSTNEKDMYSFLEDMGLKAFTNSKIRKPKMCPQLEHGPEGEGEGEIPENFEFRGVSEDLVVQISELEGRGSVEEPHTKLRKYFPETWIWDLVVVNSAGVAEVGVTVPDTITEWKAGAFCLSEDAGLGISSTASLRAFQPFFVELTMPYSVIRGEAFTLKATVLNYLPKCIRVSVQLEASPAFLAVPVEKEQAPHCICANGRQTVSWAVTPKSLGNVNFTVSAEALESQELCGTEVPSVPEHGRKDTVIKPLLVEPEGLEKETTFNSLLCPSGGEVSEELSLKLPPNVVEESARASVSVLGDILGSAMQNTQNLLQMPYGCGEQNMVLFAPNIYVLDYLNETQQLTPEIKSKAIGYLNTGYQRQLNYKHYDGSYSTFGERYGRNQGNTWLTAFVLKTFAQARAYIFIDEAHITQALIWLSQRQKDNGCFRSSGSLLNNAIKGGVEDEVTLSAYITIALLEIPLTVTHPVVRNALFCLESAWKTAQEGDHGSHVYTKALLAYAFALAGNQDKRKEVLKSLNEEAVKKDNSVHWERPQKPKAPVGHFYEPQAPSAEVEMTSYVLLAYLTAQPAPTSEDLTSATNIVKWITKQQNAQGGFSSTQDTVVALHALSKYGAATFTRTGKAAQVTIQSSGTFSSKFQVDNNNRLLLQQVSLPELPGEYSMKVTGEGCVYLQTSLKYNILPEKEEFPFALGVQTLPQTCDEPKAHTSFQISLSVSYTGSRSASNMAIVDVKMVSGFIPLKPTVKMLERSNHVSRTEVSSNHVLIYLDKVSNQTLSLFFTVLQDVPVRDLKPAIVKVYDYYETDEFAIAEYNAPCSKDLGNADYKDDDDKGASHHHHHH
As for B2, the “Protease Inhibition (% of WT)” value was 72 % of WT with MMP13; 160 % of WT in the assay with MMP7; 0 % of WT with MMP9; 117 % of WT with Elastase; 208 % of WT with ADAMTS4; 16 % of WT with MMP2. For the same molecule, the “Protease Inhibition (% of WT)” value is 54 % of WT with MMP8; 440 % of WT with ADAMTS5; 182 % of WT with MMP3; 105 % of WT with Cathepsin G; 108 % of WT with MMP1.
